Assay results as given in patent US20030092037A1, “Elk1 phosphorylation related gene” (priority 2001, published 2003).

B1: 112 (protein, listed as Homo sapiens)
chain: METTFGPAFSAVTTITKADGTSTYKQHCRTPSSSSTLAYSPRDEEDSMPPISTPRRSDSAISVRSLHSESSMSLRSTFSLPEEEEEPEPLVFAEQPSVKLCCQLCCSVFKDPVITTCGHTFCRRCALKSEKCPVDNVKLTVVVNNIAVAEQIGELFIHCRHGCRVAGSGKPPIFEVDPRGCPFTIKLSARKDHEGSCDYRPVRCPNNPSCPPLLRMNLEAHLKECEHIKCPHSKYGCTFIGNQDTYETHLETCRFEGLKEFLQQTDDRFHEMHVALAQKDQEIAFLRSMLGKLSEKIDQLEKSLELKFDVLDENQSKLSEDLMEFRRDASMLNDELSHINARLNMGILGSYDPQQIFKCKGTFVGHQGPVWCLCVYSMGDLLFSGSSDKTIKVWDTCTTYKCQKTLEGHDGIVLALCIQGCKLYSGSADCTIIVWDIQNLQKVNTIRAHDNPVCTLVSSHNVLFSGSLKAIKVWDIVGTELKLKKELTGLNHWVRALVAAQSYLYSGSYQTIKIWDIRTLDCIHVLQTSGGSVYSIAVTNHHIVCGTYENLIHVWDIESKEQVRTLTGHVGTVYALAVISTPDQTKVFSASYDRSLRVWSMDNMICTQTLLRHQGSVTALAVSRGRLFSGAVDSTVKVWTC
B2: 110 (protein, listed as Homo sapiens)
chain: MERPLCSHLCSCLAMLALLSPLSLAQYDSWPHYPEYFQQPAPEYHQPQAPANVAKIQLRLAGQKRKHSEGRVEVYYDGQWGTVCDDDFSIHAAHVVCRELGYVEAKSWTASSSYGKGEGPIWLDNLHCTGNEATLAACTSNGWGVTDCKHTEDVGVVCSDKRIPGFKFDNSLINQIENLNIQVEDIRIRAILSTYRKRTPVMEGYVEVKEGKTWKQICDKHWTAKNSRVVCGMFGFPGERTYNTKVYKMFASRRKQRYWPFSMDCTGTEAHISSCKLGPQVSLDPMKNVTCENGLPAVVSCVPGQVFSPDGPSRFRKAYKPEQPLVRLRGGAYIGEGRVEVLKNGEWGTVCDDKWDLVSASVVCRELGFGSAKEAVTGSRLGQGIGPIHLNEIQCTGNEKSIIDCKFNAESQGCNHEEDAGVRCNTPAMGLQKKLRLNGGRNPYEGRVEVLVERNGSLVWGMVCGQNWGIVEAMVVCRQLGLGFASNAFQETWYWHGDVNSNKVVMSGVKCSGTELSLAHCRHDGEDVACPQGGVQYGAGVACSETAPDLVLNAEMVQQTTYLEDRPMFMLQCAMEENCLSASAAQTDPTTGYRRLLRFSSQIHNNGQSDFRPKNGRHAWIWHDCHRHYHSMEVFTHYDLLNLNGTKVAEGHKASFCLEDTECEGDIQKNYECANFGDQGITMGCWDMYRHDIDCQWVDITDVPPGDYLFQVVINPNFEVAESDYSNNIMKCRSRYDGHRIWMYNCHIGGSFSEETEKKFEHFSGLLNNQLSPQ
B3: 116 (protein, listed as Mus musculus)
chain: MSSAKSARYDRFSGGPANLPSSDSSGTRMETTFGPTFSTVTTITKAADGTGTYKQHRRTPSSSSTLAYSPRDEEDGMEPLVFAEQPSVKLCCQLCCSVFKDPVITTCGHTFCRRCALKSEKCPVDNAKLTVVVNNIAVAEQIGELFIHCRHGCHAAGTGKPGVFEVDPRGCPFTIKLSARKDHESSCDYRPVRCPNNPSCPPLLKMNLEAHLKECEHIKCPHSKYGCTFIGNQDTYETHLETCRFEGLKEFLQQSDDRFHEMHVALAQKDQEIAFLRSMLGKLSEKINQLEKSLELKFDVLDENQSKLSEDLMEFRRDASMLNDELSHINARLNMGILGSYDPQQIFKCKGTFVGHQGPVWCLCVYSMGDLLFSGSSDKTIKVWDTCTTYKCQKTLEGHDGIVLALCIQGCKLYSGSADCTIIVWDIQNLQKVNTIRAHDNPVCTLVSSHNMLFSGSLKAIKVWDIVGTELKLKKELTGLNHWVRALVAAQSYLYSGSYQTIKIWDIRTLDCIHVLQTSGGSVYSIAVTNHHIVCGTYENLIHVWDIESKEQVRTLTGHVGTVYALAVISTPDQTKVFSASYDRSLRVWSMDNMICTQTLLRHQGSVTALAVSRGRLFSGAVDSTVKVWTC
B4: 50 (protein, listed as Homo sapiens)
chain: MAKERRRAVLELLQRPGNARCADCGAPDPDWASYTLGVFICLSCSGIHRNIPQVSKVKSVRLDAWEEAQVEFMASHGNDAARARFESKVPSFYYRPTPSDCQLLREQWIRAKYERQEFIYPEKQEPYSAGYREGFLWKRGRDNGQFLSRKFVLTEREGALKYFNRNDAKEPKAVMKIEHLNATFQPAKIGHPHGLQVTYLKDNSTRNIFIYHEDGKEIVDWFNALRAARFHYLQVAFPGASDADLVPKLSRNYLKEGYMEKTGPKQTEGFRKRWFTMDDRRLMYFKDPLDAFARGEVFIGSKESGYTVLHGFPPSTQGHHWPHGITIVTPDRKFLFACETESDQREWVAAFQKAVDRPMLPQEYAVEAHFKHKP
B5: 68 (protein, listed as Homo sapiens)
chain: MLKEEQEVAMLGVPHNPAPPMSTVIHIRSETSVPDHVVWSLFNTLSMNTCCLGFIAFAYSVKSRDRKMVGDVTGAQAYASTAKCLNIWALILGIFMTILLIIIPVLVVQAQR
B6: 52 (protein, listed as Homo sapiens)
chain: MAASRLELNLVRLLSRCEAMAAEKRDPDEWRLEKYVGALEDMLQALKVHASKPASEVINEYSWKVDFLKGMLQAEKLTSSSEKALANQFLAPGRVPTTARERVPATKTVHLQSRARYTSEMRSELLGTDSAEPEMDVRKRTGVAGSQPVSEKQSAAELDLVLQRHQNLQEKLAEEMLGLARSLKTNTLAAQSVIKKDNQTLSHSLKMADQNLEKLKTESERLEQHTQKSVNWLLWAMLIIVCFIFISMILFIRIMPKLK
B7: 60 (protein, listed as Homo sapiens)
chain: MLGSGFKAERLRVNLRLVINRLKLLEKKKTELAQKARKEIADYLAAGKDERARIRVEHIIREDYLVEAMEILELYCDLLLARFGLIQSMKELDSGLAESVSTLIWAAPRLQSEVAELKIVADQLCAKYSKEYGKLCRTNQIGTVNDRLMHKLSVEAPPKILVERYLIEIAKNYNVPYEPDSVVMVPPQECERMGEALWEDHQRWLDSGREHVVKHPSLVLRFQT
B8: 44 (protein, listed as Homo sapiens)
chain: MEDEEVAESWEEAADSGEIDRRLEKKLKITQKESRKSKSPPKVPIVIQDDSLPAGPPPQIRILKRPTSNGVVSSPNSTSRPTLPVKSLAQREAEYAEARKRILGSASPEEEQEKPILDRPTRISQPEDSRQPNNVIRQPLGPDGSQGFKQRR
B9: 4 (protein, listed as Homo sapiens)
chain: MSHEKSFLVSGDNYPPPNPGYPGGPQPPMPPYAQPPYPGAPYPQPPFQPSPYGQPGYPHGPSPYPQGGYPQGPYPQGGYPQGPYPQEGYPQGPYPQGGYPQGPYPQSPFPPNPYGQPQVFPGQDPDSPQHGNYQEEGPPSYYDNQDFPATNWDDKSIRQAFIRKVFLVLTLQLSVTLSTVSVFTFVAEVKGFVRENVWTYYVSYAVFFISLIVLSCCGDFRRKHPWNLVALSVLTASLSYMVGMIASFYNTEAVIMAVGITTAVCFTVVIFSMQTRYDFTSCMGVLLVSMVVLFIFAILCIFIRNRILEIVYASLGALLFTCFLAVDTQLLLGNKQLSLSPEEYVFAALNLYTDIINIFLYILTIIGRAKE

Tested on: MAP kinase cascade activation
Assay: Reporter activity reflecting MAP kinase cascade activation, corrected using an internal control (Elk1-GAL4 luciferase reporter in 293-EBNA cells)
Format: cell-based, human
Conditions: 12.5 ng/well expression plasmid; 293-EBNA cells; 24 hours
Procedure: (in the presence of 5% CO2). […] The method used for introduction was in accordance with the attached protocol. After culturing for 24 hours at 37° C., reporter activity (firefly luciferase acitivity), which reflects MAP kinase cascade activation, and reporter activity being the internal control (sea pansy luciferase) were measured using Picagene Dual (purchased from Toyo Ink Manufacturing) in accordance with the manufacturer's instructions.
Luciferase activity was measured with Perkin Elmer's Wallac ARVOTMST 1420 MULTILABEL COUNTER.
Reporter activity where an expression plasmid comprising the above gene was introduced, which reflects MAP kinase cascade activation corrected with internal control reporter activity, is shown in Table 1, which is expressed as a factor of the same reporter activity where a null vector was introduced (S/B value).

Molecule | Reporter activity corrected with internal control, as a factor of null vector (S/B value)
B1 | 7.6
B2 | 2.3
B3 | 11.9

Same assay, conditions: 25 ng/well expression plasmid; 293-EBNA cells; 24 hours

Molecule | Reporter activity corrected with internal control, as a factor of null vector (S/B value)
B1 | 2.2
B4 | 2.3
B5 | 2.3
B2 | 3.4
B6 | 2.3
B3 | 17.3
B7 | 2.0
B8 | 9.1
B9 | 2.1

Same assay, conditions: 50 ng/well expression plasmid; 293-EBNA cells; 24 hours

Molecule | Reporter activity corrected with internal control, as a factor of null vector (S/B value)
B1 | 3.1
B4 | 4.3
B5 | 4.0
B2 | 4.7
B6 | 3.6
B3 | 19.9
B7 | 2.6
B8 | 55.4
B9 | 4.1

Same assay, conditions: 100 ng/well expression plasmid; 293-EBNA cells; 24 hours

Molecule | Reporter activity corrected with internal control, as a factor of null vector (S/B value)
B4 | 3.8
B5 | 7.3
B6 | 5.4
B7 | 4.2
B8 | 64.5
B9 | 4.5

Same assay, conditions: plasmid 12.5 ng, 25 ng, 50 ng and 100 ng

Molecule | Dependence of corrected reporter activity on amount of expression plasmid
B1 | increases that were dependent on the amount of expression plasmid
B4 | increases that were dependent on the amount of expression plasmid
B5 | increases that were dependent on the amount of expression plasmid
B2 | increases that were dependent on the amount of expression plasmid
B6 | increases that were dependent on the amount of expression plasmid
B3 | increases that were dependent on the amount of expression plasmid
B7 | increases that were dependent on the amount of expression plasmid
B8 | increases that were dependent on the amount of expression plasmid
B9 | increases that were dependent on the amount of expression plasmid
